Measurements taken from the Human Domainome abundance scans (Beltran et al. 2025).

B1: Segment polarity protein dishevelled homolog DVL-3, residues 2 to 81; numbered along this chain, Q92997 (parent)
chain: GETKIIYHLDGQETPYLVKLPLPAERVTLADFKGVLQRPSYKFFFKSMDDDFGVVKEEISDDNAKLPCFNGRVVSWLVSA

Variants of: B1
Assay: abundance fitness (aPCA) (normalised: wild type 0, dead -1); higher = more abundant; growth selection in yeast, the domain comes from the species named
Settings: Homo sapiens

Abundance fitness: each site, then its substitutions
N63: V -0.59 | A -0.184 | S -0.104 | E 0.009 | F -0.661 | T -0.119 | Y -0.33 | L -0.615 | K -0.175 | C -0.157 | G -0.175 | H -0.093 | Q -0.113 | I -0.766 | R -0.238
I59: D -1.21 | P -0.777 | F -0.592 | S -0.704 | E -0.677 | C -0.593 | M -0.474 | V -0.395 | G -0.696 | N -0.736 | R -0.746 | K -0.675 | A -0.419 | Q -1.11 | Y -0.655 | W -0.724 | T -0.811 | L -0.64 | H -0.628
V55: C 0.198 | F 0.204 | M -0.024 | R 0.225 | K 0.199 | T 0.195 | S -0.148 | H 0.365 | G -0.335 | A -0.212 | D -0.259 | Q 0.106 | L -0.21 | I 0.151 | Y 0.2 | W -0.189 | E -0.104 | P -0.895
D51: S 0.072 | L -0.32 | Q 0.158 | K 0.197 | A 0.022 | P 0.057 | R 0.224 | I -0.202 | E -0.074 | N 0.25 | M -0.279 | W -0.824 | T 0.166 | F -0.198 | C -0.191 | H 0.058 | Y -0.224 | V -0.113 | G -0.004
S60: A -0.152 | L -0.502 | H 0.137 | F -0.189 | K 0.032 | W -0.115 | P -0.922 | I -0.325 | E -0.269 | R -0.273 | D -0.32 | N -0.111 | C 0.1 | G -0.572 | T -0.005 | M -0.199
D49: T 0.111 | V -0.364 | N 0.296 | M -0.402 | Q -0.053 | S 0.234 | L -0.564 | W -0.461
D50: S 0.089 | H -0.188 | L -0.475 | N -0.079 | M -0.329 | I -0.421 | E -0.184 | Q -0.041 | G 0.069 | W -0.445 | T -0.074 | Y -0.287 | P -0.016 | K 0.131 | C -0.263 | A -0.15 | F -0.645
A64: V -0.506 | G -0.647 | C -0.346 | Q -0.001 | R -0.359 | I -0.414 | S -0.376 | D -0.342 | M -0.316 | L -0.904 | W -0.672 | N -0.523 | F -0.786 | E -0.27 | Y -0.894 | P -0.663
K65: E -0.821 | I 0.263 | V 0.072 | P -0.135 | Q 0.127 | L -0.005 | F -0.284 | D -0.914 | Y 0.093 | S -0.195 | M -0.264 | C -0.183 | G -0.47 | H 0.091 | N -0.139 | R -0.032
D62: T -0.906 | N -0.307 | L -0.563 | W -0.929 | S -0.748 | G -0.818 | I -0.744 | P -0.575 | Y -0.604 | V -0.674 | R -0.709 | Q -0.603 | F -0.536 | C -1.05 | M -0.441 | A -0.875
D61: C -0.407 | E -0.257 | Y -0.666 | M -0.335 | Q -0.082 | W -0.679 | T -0.985 | H -0.695 | I -0.384 | V -0.695 | L -0.763 | K -0.984 | S -0.594 | N -0.33 | A -0.578 | F -0.52 | P -0.566 | G -0.791
K56: V 0.102 | H -0.216 | P -0.496 | I 0.03 | Y 0.592 | W 0.282 | N -0.678 | S -0.52 | R 0.041 | C 0.103 | F -0.009 | T 0.162 | L -0.094 | G -0.63 | D -0.738 | E -0.431 | Q -0.285 | A -0.32
F69: A -0.613 | D -0.352 | C -0.148 | E -0.108
G53: W -0.458 | Y 0.223 | Q 0.327 | A 0.096 | V -0.005 | M -0.032 | I -0.501 | N 0.563 | H 0.358 | E 0.209 | S 0.153 | F -0.362 | L -0.321 | K 0.482 | R 0.382 | C 0.2 | P -0.211 | T 0.092
F52: K 0.604 | H 0.32 | M 0.156 | E 0.335 | R 0.618 | V 0.048 | A 0.263 | Y -0.063 | G 0.781 | S 0.37 | I 0.036 | C 0.351 | L 0.249 | T 0.183 | Q 0.268
C68: I -0.049 | D -0.624 | Q -0.189 | P -0.759 | L 0.061 | E -0.645 | R -0.875 | T 0.103 | M -0.22 | S 0.081 | F -0.112 | G -0.699 | W -0.793 | H 0.143 | A -0.003 | N -0.117
V54: M -0.188 | A 0.005 | L -0.083 | Q -0.241 | F 0.136 | W 0.13 | D 0.168 | S -0.082 | P 0.069 | C 0.01 | R -0.556 | Y -0.088 | T -0.178 | G -0.127 | H 0.002 | E 0.192 | K -0.657 | N -0.005 | I 0.175
E57: C -0.09 | K 0.502 | H -0.109 | W -0.526 | A -0.121 | Y -0.222 | P -0.475 | S -0.137 | M 0.292 | L 0.136 | G -0.623 | R 0.44 | Q 0.256 | V 0.254 | N -0.276 | T 0.441 | D -0.904
P67: M -0.603 | G -0.659 | F -0.657 | R -0.544 | W -1.01 | V -0.728 | L -0.94 | H -0.874 | D -0.623 | C -0.948 | Q -0.676 | S -0.646 | K -1.02 | E -0.432 | A -0.841 | Y -0.602 | I -1.04
L66: G -0.789 | D -1.44 | K -0.644 | V -0.864 | M -0.664 | C -0.923 | S -0.747 | I -0.461 | Y -0.508 | E -0.493 | P -0.588 | R -0.706 | A -0.822 | F -0.461 | H -0.475 | N -0.825 | T -0.772
E58: P -0.95 | L -0.492 | Q -0.513 | H -0.227 | T -0.456 | N -0.536 | R -0.676 | V -0.561 | G -0.733 | S -0.62 | K -0.652 | D -0.942 | M -0.476 | A -0.647 | Y -0.801
